In patent US8741840B2, “BMP-7 for use in treating neointimal hyperplasia” (Washington University, priority 2008, dated 2014):

What was measured:
[1] = test system: hVSMC; experiment: RT-PCR of osteoblastic differentiation program genes in hVSMC; assay type: cell-based, human
Procedure: Cell Culture: Human adult aorta were obtained from seven cadaveric organ donors rejected because of atherosclerosis by Mid-America Transplant Services (St. Louis, Mo.) and enzymatically digested to obtain Human Smooth Muscle Cells (HSMC). Medial tissue was separated from the adventia and intima and digested with collagenase type I (Worthington, Lakewood, N.J.) 2 mg/ml for 1 hr, and washed with Hank's balanced salt solution (HBSS). Further digestion followed with collagenase type II 1 mg/ml (Worthington, Lakewood, N.J.) and elastase 0.25 mg/ml (Worthington, Lakewood, N.J.) for 4 hrs. Cell suspensions were washed twice with HBSS and cultured in T-75 flasks for three weeks in a 95%/5% air/CO2 humidified environment at 37° C. The growth medium used was DMEM containing […] glucose (high glucose), 10% fetal bovine serum (FBS, Atlas, Fort Collins, Colo.), 1 mM sodium pyruvate, 100 units/ml Penicillin and […] Streptomycin (Sigma, St Louis, Mo.). Cell purity was assessed by positive immunostaining for α-smooth muscle actin and calponin and for the absence of von Willebrand factor. In all experimental protocols, cells were seeded at 1×10^5 cells/well in six-well plates. Medium was changed on the first day and every third day thereafter. In all cases, cells used were between passages two and five (Table 3).
RT-PCR: RNA was extracted from cell cultures using RNeasy Mini Kits (Qiagen, Valencia, Calif.). Semi-quantitative RT-PCR was conducted using Roche 1st Strand cDNA Synthesis Kit (Indianapolis, Ind.) and PCR kit from Invitrogen (Grand Island, N.Y.) according to manufacturer's instructions using a two-step method. 1 μg of total RNA was reverse transcribed and random primers were added for 60 min at 42° C., prior to PCR. Forward and Reverse primers (Table 4) were added and the reactions subjected to PCR for 20-35 cycles. The number of cycles necessary to amplify cDNA but remain within the exponential amplification range was determined for each primer set. GAPDH was used as internal standard to assess loading. Genomic contamination was assessed by heat inactivation of the reverse transcriptase prior to RT-PCR. Primers were designed using Vector NTI soft ware (Invitrogen, Grand Island, N.Y.) and optimal conditions for each prime pairs were determined (Table 4). A Perkin-Elmer DNA Thermal Cycler was used to perform the reaction. Products were separated on a 2% agarose E-gel (Invitrogen, Grand Island, N.Y.), and visualized with ethidium bromide. The band intensity was analyzed first by scanning the gel on a Typhoon 9410 gel imager (Amersham Biosciences), quantified by using TotalLab software v2003.03 (Nonlinear Dynamics, Durham, N.C.) and normalized for loading by comparison to GAPGH. Negative controls were performed by inactivating the reverse transcriptase by boiling for 5 min prior to RT-PCR to insure that genomic DNA was not amplified.
Stimulation of osteoblastic differentiation through osterix induction. […] Osterix (E) was only weakly expressed in basal culture conditions. Phosphorus stimulated transcription of osterix (E). […] The data in A-E were normalized to the expression level in basal culture conditions and expressed as fold induction, mean±SEM, n=3. In: Principles of Bone Biology, edited by Bilezikian J P et al., New York, Academic Press, 1996, pp 51-67; Hoffmann H M et al., Proc. Nat. […]

[2] = test system: aortas of LDLR−/− high fat fed mice; experiment: Aortic expression of calcification related genes by real time RT-PCR; assay type: in vivo, mouse; details: CKD mice, BMP-7, 3% CaCO3 or 3% LaCO3 treated
Procedure: Real Time Quantitative RT-PCR: Following reverse transcription performed as above, real time was performed using the MX 4000 (Strategene, La Jolla, Calif.), SYBR Green from Sigma (St. Louis) and the PCR kit from Invitrogen. Each reaction was performed in triplicate at 95° C., 45 sec, and 60° C., 30 sec, and 60 sec at 72° C. for 40 cycles. This was followed by a melt cycle, which consisted of stepwise increase in temperature from 72° C. to 99° C. […] Ct numbers (threshold values) were set within the exponential phase of PCR and were used to calculate the expression levels of the genes of interest. GAPDH was used as an internal standard and used to normalize the values. A standard curve consisting of the cT versus log cDNA dilutions (corresponding to the log copy numbers) was generated by amplifying serial dilutions of cDNA corresponding to an […] amount of amplicon.
Expression of calcification related genes. To relate the mechanism of phosphorus action detected in vitro to this model of CKD induced vascular calcification and hyperphosphatemia in vivo, the inventors of the instant invention analyzed aortic expression of the osteoblastic lineage genes including osterix message levels by real time RT-PCR. […] Data are expressed as the mean of the transcript levels relative to GAPDH expression in each aorta±SEM, N=3. […] (Hoffman 1994;Ducy P. et al., Mol Cell Biol 15:1858-1869, 1995)^32;41

[3] = test system: LDLR−/− mice with CKD on high fat diet; details: LDLR-/- mice with CKD fed high fat diets; previous studies (Davies 2003; Davies 2005); cited from earlier work

B1: BMP-7: bone morphogenetic protein-7 (osteogenic protein-1), mineralization-countering morphogen; provided by Johnson and Johnson (protein, listed as Homo sapiens)
chain: STGSKQRSQNRSKTPKNQEALRMANVAENSSSDQRQACKKHELYVSFRDLGWQDWIIAPEGYAAYYCEGECAFPLNSYMNATNHAIVQTLVHFINPETVPKPCCAPTQLNAISVLYFDDSSNVILKKYRNMVVRACGCH
- osteocalcin expression ([1]; 2 mM phosphorus plus 10 ng/ml BMP-7 (FIG. 5A)): inhibited osterix and osteocalcin expression
- BMP-2 expression ([1]; 2 mM phosphorus plus 10 ng/ml BMP-7 (FIG. 5B)): failed to affect expression
- RUNX2 expression ([1]; 2 mM phosphorus plus 10 ng/ml BMP-7 (FIG. 5D)): failed to affect expression
- osterix expression ([1]; 2 mM phosphorus plus 10 ng/ml BMP-7 (FIG. 5E)): strongly inhibited osterix expression
- CBFA1 expression in aorta ([2]; relative to GAPDH (FIG. 9B)): inhibited
- Osterix expression in aorta ([2]; relative to GAPDH (FIG. 9C)): inhibited
- Osteocalcin expression in aorta ([2]; relative to GAPDH (FIG. 9D)): inhibited
- development of aortic calcification (prevention studies) [3]: prevented the development of aortic calcification
